Measurements: patent US20070178098A1

Experiments:
[1] = molecular target: Fc-IL6Ralpha-IL6 (human IL-6Ralpha and IL-6; mouse Fc); assay: cell-based or functional assay
human IL-6 (human) = human IL-6 (human) (UniProt P05231); assay: cell-based or functional assay
Sequence of human IL-6 (human) (P05231 30-212 limits assumed): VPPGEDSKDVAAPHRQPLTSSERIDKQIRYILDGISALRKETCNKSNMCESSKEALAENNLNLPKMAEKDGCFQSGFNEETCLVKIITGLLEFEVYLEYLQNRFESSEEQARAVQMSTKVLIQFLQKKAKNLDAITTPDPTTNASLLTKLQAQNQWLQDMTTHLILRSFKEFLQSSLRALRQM

Sequence of Fc-IL6Ralpha-IL6 (human IL-6Ralpha and IL-6; mouse Fc) (chain, as listed by the source limits assumed): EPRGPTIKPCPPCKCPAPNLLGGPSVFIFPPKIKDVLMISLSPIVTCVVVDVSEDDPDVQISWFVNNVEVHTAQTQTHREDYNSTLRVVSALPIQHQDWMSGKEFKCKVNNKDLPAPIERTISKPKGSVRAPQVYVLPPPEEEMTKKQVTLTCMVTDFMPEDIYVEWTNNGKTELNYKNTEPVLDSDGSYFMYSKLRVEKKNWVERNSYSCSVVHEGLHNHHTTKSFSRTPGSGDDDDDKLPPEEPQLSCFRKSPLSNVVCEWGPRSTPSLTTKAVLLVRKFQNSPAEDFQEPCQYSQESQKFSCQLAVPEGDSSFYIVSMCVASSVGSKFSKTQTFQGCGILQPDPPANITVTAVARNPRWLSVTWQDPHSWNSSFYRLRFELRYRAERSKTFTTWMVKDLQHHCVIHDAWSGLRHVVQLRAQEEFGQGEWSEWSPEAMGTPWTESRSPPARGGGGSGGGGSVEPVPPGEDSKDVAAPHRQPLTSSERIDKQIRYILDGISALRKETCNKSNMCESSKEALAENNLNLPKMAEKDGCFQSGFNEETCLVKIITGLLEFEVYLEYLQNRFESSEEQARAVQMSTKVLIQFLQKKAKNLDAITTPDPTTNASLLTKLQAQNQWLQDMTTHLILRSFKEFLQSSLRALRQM

B1: CNTO-328 (antibody, INN chains, looked up, V domains shown)
VH: EVQLVESGGKLLKPGGSLKLSCAASGFTFSSFAMSWFRQSPEKRLEWVAEISSGGSYTYYPDTVTGRFTISRDNAKNTLYLEMSSLRSEDTAMYYCARGLWGYYALDYWGQGTSVTVSS
VL: QIVLIQSPAIMSASPGEKVTMTCSASSSVSYMYWYQQKPGSSPRLLIYDTSNLASGVPVRFSGSGSGTSYSLTISRMEAEDAATYYCQQWSGYPYTFGGGTKLEIK
- 8 Hours % Inhibition of haptoglobin secretion in mice given Fc-IL6Rα-IL6 [1]: 12%
- 24 hours % Inhibition of haptoglobin secretion in mice given Fc-IL6Rα-IL6 [1]: -3%
- Haptoglobin Inhibition IC50 (HepG2 cells stimulated with IL-6Rα-IL-6) [1]: > 0.333 µg/mL
- LP-1 Proliferation IC50 (stimulated with Fc-IL6Ralpha-IL6) [1]: 1.61 µg/mL
- Haptoglobin Inhibition IC50 (HepG2 cells stimulated with IL-6) (human IL-6 (human)): 0.00519 µg/mL
- LP-1 Proliferation IC50 (stimulated with IL-6) (human IL-6 (human)): 0.0101 µg/mL
